According to paper PMC3940976 (Scientific Reports, 2014):

B1: intra-Golgi 3Q-SNARE set Sed5p/Gos1p/Sft1p reconstituted on proteoliposomes (complex)
chain 1: MNIKDRTSEFQQSVLSYKKRNKNFREQQRERLQEKESENFANNTTGNGKSVSEFQKKASGIAHEISSTAQLLSKLAVLAKRKPMFNDNPVEIAELSFLIKRKIYAIEQSLVQLSQLKKTDVNGNTSNQSSKQPSAVQHSKNVVNLLNTQMKNISGSFKDVLEERQRLEMANKDRWQKLTTDTGHAPADDQTQSNHAADLTTYNNSNPFMTSLLDESSEKNNNSSNQGELSFPQNDSQLMLMEEGQLSNNVYLQERNRAVETIESTIQEVGNLFQQLASMVQEQGEVIQRIDANVDDIDLNISGAQRELLKYFDRIKSNRWLAAKVFFIIFVFFVIWVLVN
chain 2: MSSQPSFVTIRGKAISLETQTESLLSKYSTFAQTTSSEQTGQEKKIDKQLEGILGQRQDVIDSLTQICDSNPAISASKLSQLHRHKEILQDHWKSFRNIRSSIQQERNRLNLLFSVKNDIANSTTDAPAPIGDADEYIQNETRRIDQSNNVVDRLISQAWETRSQFHSQSNVLNTANNKVLQTLQRIPGVNQLIMKINTRRKKNAFVLATITTLCILFLFFTW
chain 3: MSNSRYSQTESNNDRKLEGLANKLATFRNINQEIGDRAVSDSSVINQMTDSLGSMFTDIKNSSSRLTRSLKAGNSIWRMVGLALLIFFILYTLFKLF
B2: mixed 3Q-SNARE set Sed5p/Vti1p/Tlg1p reconstituted on proteoliposomes (complex)
chain 1: B1 chain 1
chain 2: MSSLLISYESDFKTTLEQAKASLAEAPSQPLSQRNTTLKHVEQQQDELFDLLDQMDVEVNNSIGDASERATYKAKLREWKKTIQSDIKRPLQSLVDSGDRDRLFGDLNASNIDDDQRQQLLSNHAILQKSGDRLKDASRIANETEGIGSQIMMDLRSQRETLENARQTLFQADSYVDKSIKTLKTMTRRLVANKFISYAIIAVLILLILLVLFSKFK
chain 3: […]
B3: His6-tagged Sly1p (natural protein)
chain: MAVEEIASRKDISLRDMQISAILKMLFLNKDLNNNDNITTITDDIFNQQEIIWKVLILDIKSTATISSVLRVNDLLKAGITVHSLIKQDRSPLPDVPAIYFVSPTKENIDIIVNDLKSDKYSEFYINFTSSLPRNLLEDLAQQVSITGKSDKIKQVYDQYLDFIVTEPELFSLEISNAYLTLNDPKTTEEEITGLCANIADGLFNTVLTINSIPIIRAAKGGPAEIIAEKLGTKLRDFVINTNSSSTSTLQGNDSLERGVLIILDRNIDFASMFSHSWIYQCMVFDIFKLSRNTVTIPLESKENGTDNTTAKPLATKKYDIEPNDFFWMENSHLPFPEAAENVEAALNTYKEEAAEITRKTGVTNISDLDPNSNNDTVQIQEVVKKLPELTAKKNTIDTHMNIFAALLSQLESKSLDTFFEVEQDPGSTKTRSRFLDILKDGKTNNLEDKLRSFIVLYLTSTTGLPKDFVQNVENYFKENDYDINALKYVYKLREFMQLSNMSLQNKSLEDGSDSAFKPSNLTLSGIYGLTEGKLQGGVGSLISGIKKLLPEKKTIPITNVVDAIMDPLNSSQKNLETTDSYLYIDPKITRGSHTRKPKRQSYNKSLVFVVGGGNYLEYQNLQEWAHSQLHNPKKVMYGSTAITTPAEFLNEISRLGASNSSNNDA

Experiments:
His6-tagged Sly1p = molecular target: B3; test: co-sedimentation
[1] = molecular target: T1, pre-assembled ER-Golgi cis-QabcR-SNARE complex GST-Sec22p/Sed5p/Bos1p/Bet1p (S. cerevisiae, UniProt P22214;Q01590;P25385;P22804); test: pull-down
T1 sequence 1: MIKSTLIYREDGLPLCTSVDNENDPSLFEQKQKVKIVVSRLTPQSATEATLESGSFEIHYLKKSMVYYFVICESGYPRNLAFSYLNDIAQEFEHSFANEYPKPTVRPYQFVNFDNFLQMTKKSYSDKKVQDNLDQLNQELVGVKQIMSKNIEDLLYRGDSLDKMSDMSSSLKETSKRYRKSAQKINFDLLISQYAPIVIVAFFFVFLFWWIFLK
T1 sequence 2: B1 chain 1
T1 sequence 3: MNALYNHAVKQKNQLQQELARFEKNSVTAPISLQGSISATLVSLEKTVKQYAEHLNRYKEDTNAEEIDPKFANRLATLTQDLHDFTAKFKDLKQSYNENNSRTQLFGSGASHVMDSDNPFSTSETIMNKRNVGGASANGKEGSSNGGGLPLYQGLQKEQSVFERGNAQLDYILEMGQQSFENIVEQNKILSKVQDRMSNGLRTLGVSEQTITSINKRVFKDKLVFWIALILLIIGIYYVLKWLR
T1 sequence 4: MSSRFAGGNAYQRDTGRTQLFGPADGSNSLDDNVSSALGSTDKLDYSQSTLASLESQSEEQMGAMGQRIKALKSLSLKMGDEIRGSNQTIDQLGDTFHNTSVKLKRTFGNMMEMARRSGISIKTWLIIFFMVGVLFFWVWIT

[2] = molecular target: T2, pre-assembled intra-Golgi cis-QabcR-SNARE complex GST-Sec22p/Sed5p/Gos1p/Sft1p (S. cerevisiae, UniProt P22214;Q01590;P38736;P43682); test: pull-down
T2 sequence 1: T1 sequence 1
T2 sequence 2: B1 chain 1
T2 sequence 3: B1 chain 2
T2 sequence 4: B1 chain 3

[3] = molecular target: mixed 3Q-SNARE set Sed5p/Vti1p/Bet1p reconstituted on proteoliposomes (S. cerevisiae, UniProt Q01590;Q04338;P22804); test: co-sedimentation
[4] = molecular target: T3, ER-Golgi 3Q-SNARE set Sed5p/Bos1p/Bet1p reconstituted on proteoliposomes (S. cerevisiae, UniProt Q01590;P25385;P22804); test: co-sedimentation
T3 sequence 1: B1 chain 1
T3 sequence 2: T1 sequence 3
T3 sequence 3: T1 sequence 4

[5] = molecular target: T4, mixed 3Q-SNARE set Sed5p/Gos1p/Bet1p reconstituted on proteoliposomes (S. cerevisiae, UniProt Q01590;P38736;P22804); test: co-sedimentation
T4 sequence 1: B1 chain 1
T4 sequence 2: B1 chain 2
T4 sequence 3: T1 sequence 4

[6] = molecular target: mixed 3Q-SNARE set Sed5p/Vti1p/Vam7p reconstituted on proteoliposomes (S. cerevisiae, UniProt Q01590;Q04338;P32912); test: co-sedimentation
Chain of mixed 3Q-SNARE set Sed5p/Vti1p/Vam7p reconstituted on proteoliposomes (P32912 whole entry, one chain of several): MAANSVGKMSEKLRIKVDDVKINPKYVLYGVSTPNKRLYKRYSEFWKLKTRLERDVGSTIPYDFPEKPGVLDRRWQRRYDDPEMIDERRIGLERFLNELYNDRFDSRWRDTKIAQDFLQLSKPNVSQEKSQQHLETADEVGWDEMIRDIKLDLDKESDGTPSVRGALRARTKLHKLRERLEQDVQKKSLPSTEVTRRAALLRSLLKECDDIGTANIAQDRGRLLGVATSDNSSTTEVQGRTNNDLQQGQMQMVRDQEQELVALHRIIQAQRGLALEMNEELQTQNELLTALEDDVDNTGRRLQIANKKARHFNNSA

Binder | binding result (His6-tagged Sly1p) | binding result [1] | binding result [2] | binding result [3] | binding result [4] | binding result [5] | binding result [6]
B1 | binds | – | – | – | – | – | –
B2 | binds | – | – | – | – | – | –
B3 | – | binds | binds | binds | binds | binds | binds
